Here are results for 2 substances from PMC3490968.

In this experiment the target is papain (UniProt P00784). As to the kind of experiment: enzyme inhibition kinetics (fluorogenic substrate, Lineweaver-Burk plot); papain 2 nM, cystatin 40, 60, 80 pM, substrate Z-Phe-Arg-7-amido-4-methylcoumarin 0.3-5 uM; 100 mM sodium phosphate pH 6.3, 10 mM EDTA, 400 mM NaCl, 2 mM dithiothreitol.

pKi: −log10 of the molar value.

Sequence of UniProt P00784 (P00784 134-345): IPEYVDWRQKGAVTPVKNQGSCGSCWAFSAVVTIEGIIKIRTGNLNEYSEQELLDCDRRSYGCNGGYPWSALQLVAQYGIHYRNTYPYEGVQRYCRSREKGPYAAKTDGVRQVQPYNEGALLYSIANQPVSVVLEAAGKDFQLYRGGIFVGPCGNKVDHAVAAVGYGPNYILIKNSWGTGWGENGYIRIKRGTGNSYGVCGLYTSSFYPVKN

For the substance “recombinant pineapple cystatin (AcCYS), residue 1-135 (natural protein)”, the pKi was 9.70.

For “truncated AcCYS (AcCYS_DL), residue 28-135 (domain or fragment)”, the pKi is 9.85.

Usually pKi stands for −log10 of the Ki, conventionally taken in molar units.
